Experimental findings from patent publication US20220380463A1 are described below.

For the experiment, the target named is cynomolgus CD3εδ Fc heterodimer (Cy CD3ε Fc / CD3δ Fc-HIS) (cynomolgus) (UniProt Q95LI8). The experiment can be described thus: BLI (ForteBio), pH 6.0.
cynomolgus CD3εδ Fc heterodimer (Cy CD3ε Fc / CD3δ Fc-HIS) (cynomolgus), sequence (chain, as listed by the source mutant, chain 1 of 2): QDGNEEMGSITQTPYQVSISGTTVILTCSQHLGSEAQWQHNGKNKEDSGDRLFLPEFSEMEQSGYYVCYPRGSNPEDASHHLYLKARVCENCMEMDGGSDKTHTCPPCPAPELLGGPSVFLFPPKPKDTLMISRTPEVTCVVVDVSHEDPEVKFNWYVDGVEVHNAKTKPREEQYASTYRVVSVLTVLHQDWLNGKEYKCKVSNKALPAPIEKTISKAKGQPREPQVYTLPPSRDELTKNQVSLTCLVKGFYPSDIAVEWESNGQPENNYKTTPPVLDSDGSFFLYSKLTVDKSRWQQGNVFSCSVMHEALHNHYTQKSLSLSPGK
cynomolgus CD3εδ Fc heterodimer (Cy CD3ε Fc / CD3δ Fc-HIS) (cynomolgus), sequence (Q95LI8 22-100, stated change not applied, chain 2 of 2): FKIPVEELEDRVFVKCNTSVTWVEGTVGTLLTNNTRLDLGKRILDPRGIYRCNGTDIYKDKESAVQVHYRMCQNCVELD

B1: SAD10320_P02_E05 (antibody, V domains shown)
VH: QVQLVQSGAEVKKPGASVKVSCKASGFNIKDYYMHWVRQAPGQRLEWMGWIDLENANTIYDAKFQGRVTITRDTSASTAYMELSSLRSEDTAVYYCARDMHGRYFYDVWGQGTLVTVSS
VL: DIVMTQSPDSLAVSLGERATINCKSSQSLLNARTGKNYLAWYQQKPGQPPKLLIYWASTRESGVPDRFSGSGSGTDFTLTISSLQAEDVAVYYCKQSEHRRTFGGGTKVEIK
For B1, the Kd was 14.5 nM and the kon is 219000 M⁻¹ s⁻¹.

B2: SAD10320_P03_F08 (antibody, V domains shown)
VH: QVQLVQSGAEVKKPGASVKVSCKASGFNIKDYYMHWVRQAPGQRLEWMGWIDLENANTIYDAKFQGRVTITRDTSASTAYMELSSLRSEDTAVYYCARDAYGHDFYDVWGQGTLVTVSS
VL: DIVMTQSPDSLAVSLGERATINCKSSQSLLNARPGKNYLAWYQQKPGQPPKLLIYWASTRESGVPDRFSGSGSGTDFTLTISSLQAEDVAVYYCKQSYSRRTFGGGTKVEIK
For the molecule B2, the Kd was found to be 15 nM and the kon was 179000 M⁻¹ s⁻¹.

B3: SAD10320_P04_F11 (antibody, V domains shown)
VH: QVQLVQSGAEVKKPGASVKVSCKASGFNIKDYYMHWVRQAPGQRLEWMGWIDLENANTIYDAKFQGRVTITRDTSASTAYMELSSLRSEDTAVYYCARDAYGHEFYDVWGQGTLVTVSS
VL: DIVMTQSPDSLAVSLGERATINCKSSQSLLNARTGKNYLAWYQQKPGQPPKLLIYWASTRESGVPDRFSGSGSGTDFTLTISSLQAEDVAVYYCKQGHSRRTFGGGTKVEIK
In the case of B3, the Kd was 9.55 nM and the kon was 201000 M⁻¹ s⁻¹.

B4: SAD10320_P04_A12 (antibody, V domains shown)
VH: QVQLVQSGAEVKKPGASVKVSCKASGFNIKDYYMHWVRQAPGQRLEWMGWIDLENANTIYDAKFQGRVTITRDTSASTAYMELSSLRSEDTAVYYCARDAYGHVFYDVWGQGTLVTVSS
VL: DIVMTQSPDSLAVSLGERATINCKSSQSLLNARTGKNYLAWYQQKPGQPPKLLIYWASTRESGVPDRFSGSGSGTDFTLTISSLQAEDVAVYYCKQSYHHRTFGGGTKVEIK
B4 yielded a Kd of 240 nM and a kon of 69700 M⁻¹ s⁻¹.

B5: SAD10320_P03_F09 (antibody, V domains shown)
VH: QVQLVQSGAEVKKPGASVKVSCKASGFNIKDYYMHWVRQAPGQRLEWMGWIDLENANTIYDAKFQGRVTITRDTSASTAYMELSSLRSEDTAVYYCARDAYGHDFYDVWGQGTLVTVSS
VL: DIVMTQSPDSLAVSLGERATINCKSSQSLLNARTGKNYLAWYQQKPGQPPKLLIYWASTRESGVPDRFSGSGSGTDFTLTISSLQAEDVAVYYCKQSYHRRTFGGGTKVEIK
The molecule B5 yielded a Kd of 37 nM and a kon of 195000 M⁻¹ s⁻¹.

B6: SAD10320_P03_A09 (antibody, V domains shown)
VH: QVQLVQSGAEVKKPGASVKVSCKASGFNIKDYYMHWVRQAPGQRLEWMGWIDLENANTIYDAKFQGRVTITRDTSASTAYMELSSLRSEDTAVYYCARDAYGHVFYDVWGQGTLVTVSS
VL: DIVMTQSPDSLAVSLGERATINCKSSQSLLNARTGKNYLAWYQQKPGQPPKLLIYWASTRESGVPDRFSGSGSGTDFTLTISSLQAEDVAVYYCKQSSHRRTFGGGTKVEIK
In the case of B6, the Kd is 14.6 nM and the kon was 199000 M⁻¹ s⁻¹.

B7: SAD10320_P02_H06 (antibody, V domains shown)
VH: QVQLVQSGAEVKKPGASVKVSCKASGFNIKDYYMHWVRQAPGQRLEWMGWIDLENANTIYDAKFQGRVTITRDTSASTAYMELSSLRSEDTAVYYCARDAYGRNHYDVWGQGTLVTVSS
VL: DIVMTQSPDSLAVSLGERATINCKSSQSLLNARTGKSYLAWYQQKPGQPPKLLIYWASTRESGVPDRFSGSGSGTDFTLTISSLQAEDVAVYYCKQSYVHRTFGGGTKVEIK
Turning to B7, the Kd turned out to be 10.5 nM and the kon was determined as 268000 M⁻¹ s⁻¹.

B8: SAD10320_P03_H08 (antibody, V domains shown)
VH: QVQLVQSGAEVKKPGASVKVSCKASGFNIKDYYMHWVRQAPGQRLEWMGWIDLENANTIYDAKFQGRVTITRDTSASTAYMELSSLRSEDTAVYYCARDAYGHVFYDVWGQGTLVTVSS
VL: DIVMTQSPDSLAVSLGERATINCKSSQSLLNASTAKNYLAWYQQKPGQPPKLLIYWASTRESGVPDRFSGSGSGTDFTLTISSLQAEDVAVYYCKQSYRHRTFGGGTKVEIK
In the case of B8, the equilibrium dissociation constant (Kd) is 181 nM and the kon is 82700 M⁻¹ s⁻¹.

B9: SAD10320_P04_D11 (antibody, V domains shown)
VH: QVQLVQSGAEVKKPGASVKVSCKASGFNIKDYYMHWVRQAPGQRLQWMGWIDLENANTIYDAKFQGRVTITRDTSASTAYMELSSLRSEDTAVYYCARDAYGHVFYDVWGQGTLVTVSS
VL: DIVMTQSPDSLAVSLGERATINCKSSQSLLNARTGKNYLAWYQQKPGQPPKLLIYWASTRESGVPDRFSGSGSGTDFTLTISSLQAEDVAVYYCKQSYHHRTFGGGTKVEIK
Turning to B9, the Kd was determined as 16.9 nM and the kon came to 200000 M⁻¹ s⁻¹.

B10: SAD10320_P03_C08 (antibody, V domains shown)
VH: QVQLVQSGAEVKKPGASVKVSCEASGFNIKDYYMHWVRQAPGQTLAWMGWIDLENANTIYDAKFQGRVTITRDTSASTAYMELSSLRSEDTAVYYCARDAYGHVFYDVWGQGTLVTVSS
VL: DIVMTQSPDSLAVSLGERATINCKSSQSLLNARTGKNYLAWYQQKPGQPPKLLIYWASTRESGVPDRFSGSGSGTDFTLTISSLQAEDVAVYYCKQSYLHRTFGGGTKVEIK
As to B10, the Kd stood at 323 nM and the kon turned out to be 46900 M⁻¹ s⁻¹.

B11: SAD10320_P02_D06 (antibody, V domains shown)
VH: QVQLVQSGAEVKKPGASVKVSCKASGFNIKDYYMHWVRQAPGQRPAWMGWIDLENANTIYDAKFQGRVTITRDTSASTAYMELSSLRSEDTAVYYCARDAYGHGFYDVWGQGTLVTVSS
VL: DIVMTQSPDSLAVSLGERATINCKSSQSLLNARTGKNYLAWYQQKPGQPPKLLIYWASTRESGVPDRFSGSGSGTDFTLTISSLQAEDVAVYYCKQSYGHRTFGGGTKVEIK
B11 returned a Kd of 23.4 nM and a kon of 265000 M⁻¹ s⁻¹.

B12: SAD10320_P02_A06 (antibody, V domains shown)
VH: QVQLVQSGAEVKKPGASVKVSCKASGFNIKDYYMHWVRQAPGQRLPWMGWIDLENANTIYDAKFQGRVTITRDTSASTAYMELSSLRSEDTAVYYCARDAHERYFYDVWGQGTLVTVSS
VL: DIVMTQSPDSLAVSLGERATINCKSSQSLLNARTGKNYLAWYQQKPGQPPKLLIYWASTRESGVPDRFSGSGSGTDFTLTISSLQAEDVAVYYCKQSHLRRTFGGGTKVEIK
With B12, the Kd worked out at 11.6 nM and the kon is 228000 M⁻¹ s⁻¹.

B13: SAD10320_P03_D08 (antibody, V domains shown)
VH: QVQLVQSGAEVKKPGASVKVSCKASGFNIKDYYMHWVRQAPGQRLEWMGWIDLENANTIYDAKFQGRVTITRDTSASTAYMELSSLRSEDTAVYYCARDAYGHQFYDVWGQGTLVTVSS
VL: DIVMTQSPDSLAVSLGERATINCKSSQSLLNARTGKNYLAWYQQKPGQPPKLLIYWASTRESGVPDRFSGSGSGTDFTLTISSLQAEDVAVYYCKQSYHTRTFGGGTKVEIK
The molecule B13 showed a Kd of 7.76 nM and a kon of 249000 M⁻¹ s⁻¹.

B14: SAD10320_P04_F10 (antibody, V domains shown)
VH: QVQLVQSGAEVKKPGASVKVSCKASGFNIKDYYMHWVRQAPGQTLDWMGWIDLENANTIYDAKFQGRVTITRDTSASTAYMELSSLRSEDTAVYYCARDAYGRNHYDVWGQGTLVTVSS
VL: DIVMTQSPDSLAVSLGERATINCKSSQSLLNARPGKNYLAWYQQKPGQPPKLLIYWASTRESGVPDRFSGSGSGTDFTLTISSLQAEDVAVYYCKQSYLHRTFGGGTKVEIK
On to B14, for which the Kd came to 8.51 nM and the kon is 281000 M⁻¹ s⁻¹.

B15: SAD10320_P04_E11 (antibody, V domains shown)
VH: QVQLVQSGAEVKKPGASVKVSCKASGFNIKDYYMHWVRQAPGQRLEWMGWIDLENANTIYDAKFQGRVTITRDTSASTAYMELSSLRSEDTAVYYCARDAYGHDFYDVWGQGTLVTVSS
VL: DIVMTQSPDSLAVSLGERATINCKSSQSLLNARTGKNYLAWYQQKPGQPPKLLIYWASTRESGVPDRFSGSGSGTDFTLTISSLQAEDVAVYYCKQSYGHRTFGGGTKVEIK
B15: the Kd is 20.1 nM and the kon amounted to 148000 M⁻¹ s⁻¹.

B16: SAD10320_P03_E07 (antibody, V domains shown)
VH: QVQLVQSGAEVKKPGASVKVSCKASGFNIKDYYMHWVRQAPGQRLEWMGWIDLENANTIYDAKFQGRVTITRDTSASTAYMELSSLRSEDTAVYYCARDAVHRYFYDVWGQGTLVTVSS
VL: DIVMTQSPDSLAVSLGERATINCKSSQSLLNARTGKNYLAWYQQKPGQPPKLLIYWASTRESGVPDRFSGSGSGTDFTLTISSLQAEDVAVYYCKQSYHPRTFGGGTKVEIK
As to B16, the Kd amounted to 33.8 nM and the kon was 207000 M⁻¹ s⁻¹.

B17: SAD10320_P04_C10 (antibody, V domains shown)
VH: QVQLVQSGAEVKKPGASVKVSCKASGFNIKDYYMHWVRQAPGQRLEWMGWIDLENANTIYDAKFQGRVTITRDTSASTAYMELSSLRSEDTAVYYCARDAYGHAFYDVWGQGTLVTVSS
VL: DIVMTQSPDSLAVSLGERATINCKSSQSLLNARTGKNYLAWYQQKPGQPPKLLIYWASTRESGVPDRFSGSGSGTDFTLTISSLQAEDVAVYYCKQSYHQRTFGGGTKVEIK
Regarding B17, the Kd is 168 nM and the kon is 111000 M⁻¹ s⁻¹.

B18: SAD10320_P04_G11 (antibody, V domains shown)
VH: QVQLVQSGAEVKKPGASVKVSCKASGFNIKDYYMHWVRQAPGQRLEWMGWIDLENANTIYDAKFQGRVTITRDTSASTAYMELSSLRSEDTAVYYCARDAYRHEFYDVWGQGTLVTVSS
VL: DIVMTQSPDSLAVSLGERATINCKSSQSLLNARTGKNYLAWYQQKPGQPPKLLIYWASTRESGVPDRFSGSGSGTDFTLTISSLQAEDVAVYYCKQSYYHRTFGGGTKVEIK
B18 yielded a Kd of 15.7 nM and a kon of 176000 M⁻¹ s⁻¹.

B19: SAD10320_P04_A11 (antibody, V domains shown)
VH: QVQLVQSGAEVKKPGASVKVSCKASGFNIKDYYMHWVRQAPGQRLQWMGWIDLENANTIYDAKFQGRVTITRDTSASTAYMELSSLRSEDTAVYYCARDARHRYFYDVWGQGTLVTVSS
VL: DIVMTQSPDSLAVSLGERATINCKSSQSLLNARTGKNYLAWYQQKPGQPPKLLIYWASTRESGVPDRFSGSGSGTDFTLTISSLQAEDVAVYYCKQSYSHGTFGGGTKVEIK
B19 yielded a Kd of 29.4 nM and a kon of 252000 M⁻¹ s⁻¹.

B20: SAD10320_P03_C09 (antibody, V domains shown)
VH: QVQLVQSGAEVKKPGASVKVSCEASGFNIKDYYMHWVRQAPGQRLEWMGWIDLENANTIYDAKFQGRVTITRDTSASTAYMELSSLRSEDTAVYYCARDAYGHVFYDVWGQGTLVTVSS
VL: DIVMTQSPDSLAVSLGERATINCKSSQSLLNARTGKNYLAWYQQKPGQPPKLLIYWASTRESGVPDRFSGSGSGTDFTLTISSLQAEDVAVYYCKQSYLHRTFGGGTKVEIK
Regarding B20, the Kd worked out at 31.6 nM and the kon turned out to be 161000 M⁻¹ s⁻¹.
